{"source": "patent US20070203061", "about": "“Adiponectin expression-inducing agents and uses thereof” (TOUDAI TLO, LTD, published 2007)", "binders": {"B1": {"name": "adiponectin promoter -188/-157 32-bp element (dsDNA)", "DNA 1": "GAAGCCCAAGCTGGGTTGTACCAGGTTCCCTA", "DNA 2": "TAGGGAACCTGGTACAACCCAGCTTGGGCTTC"}}, "molecular_target": "FLAG-KLF9 (UniProt O35739 SEQ:1-244)", "sequence (O35739 other isoform, or with tags, fused parts or gaps)": "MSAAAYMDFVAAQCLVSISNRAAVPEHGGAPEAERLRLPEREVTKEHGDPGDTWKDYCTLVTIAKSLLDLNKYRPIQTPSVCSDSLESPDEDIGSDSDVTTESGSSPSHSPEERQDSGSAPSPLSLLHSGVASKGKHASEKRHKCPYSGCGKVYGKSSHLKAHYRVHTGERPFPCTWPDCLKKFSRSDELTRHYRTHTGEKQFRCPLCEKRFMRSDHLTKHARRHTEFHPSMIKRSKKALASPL", "test": "EMSA; purified FLAG-KLF9 with 32-bp fragment, similar to adipocyte nuclear extract", "conditions": "tags: FLAG; label: 32P", "method": "[…] were prepared from 293T cells, 3T3L1 adipocytes, or white adipose tissue according to a reported method (Almoguera, C. et al., J. Biol. Chem. 277, 43866-43872 (2002)). Double-stranded oligonucleotides used for the electrophoretic mobility shift assay were prepared by annealing both strands. Labeled probes (3,000 to 10,000 cpm) and the nuclear extracts were mixed in a reaction solution (20 μL: 10 mM Tris-HCl (pH7.6), 50 mM KCl, 0.05 mM EDTA, 2.5 mM MgCl₂, 8.5% glycerol, 1 mM dithiothreitol, 0.5 μg/mL of poly(dI-dC), 0.1% Triton X, and 1 mg/mL of skim milk), and incubated for 30 minutes on ice. The DNA-protein complexes were fractionated on a 4.6% polyacrylamide gel at 140 V for 1 hour at 4° C. The Gel was dried and exposed using a BAS2000 filter with BAStation software (Fuji Photo Film)."}
{"binder": "B1", "values": [{"measurement": "binding result", "value": "binds"}]}
